# Source: article doi:10.1101/2021.08.02.453806
# B1: GST-CHK-2-3xFLAG (enzyme)
# chain: MVRGTKRRRSSAEKPIVVVPVTRDDTMPVDEDLVVGESQCAASKPFAKLVGVRRGISSIDLADDHFVCGRGSDDAPTNFNFSQVAKDVGLYRFISKIQFSIDRDTETRRIYLHDHSRNGTLVNQEMIGKGLSRELMNGDLISIGIPALIIFVYESADADHHPEELTKKYHVTSHSLGKGGFGKVLLGYKKSDRSVVAIKQLNTQFSTRCSRAIAKTRDIRNEVEVMKKLSHPNIVAIYDWITVAKYSYMVIEYVGGGEFFSKVVDSKYNRMGLGESLGKYFAFQLIDAILYLHSVGICHRDIKPENILCSDKAERCILKLTDFGMAKNSVNRMKTRCGTPSYNAPEIVANEGVEYTPKVDIWSLGCVLFITFSGYPPFSEEYTDMTMDEQVLTGRLIFHAQWRRITVETQNMIKWMLTVEPSNRPSAVELMSTQWMKCADCRTAKQDILKSIKPISAAAPAALQTTQAGPVKKAKM
# Target: MBP-PPM-1.D-10xHIS (C. elegans)
# Assay: pull-down
binder,measurement,value
B1,"fold CHK-2 pulled down, normalized, relative to truncated PPM-1.D",20 fold
